Reference: the supplement of paper PMC7877785
± gives the uncertainty stated by the source.

Assay: self-splicing fitness, log relative to wild type (ln ratio); higher = more splicing; Tetrahymena group I intron in knt gene, E. coli kanamycin selection, DiMSum; sequences stand for … in CUCUCU…GGAGGGAAAAGUUAUCAGGCAUGCACCUGGUAGCUAGUCUUUAAACCAAUAGAUUGCAUCGGUUUAAAAGGCAAGACCGUCAAAUUGCGGGAAAGGGGUCAACAGCCGUUCAGUACCAAGUCUCAGGGGAAACUUUGAGAUGGCCUUGCAAAGGGUAUGGUAAUAAGCUGACGGACAUGGUCCUAACCACGCAGCCAAGUCCUAAGUCAACAGAUCUUCUGUUGAUAUGGAUGCAGUUCACAGACUAAAUGUCGGUCGGGGAAGAUGUAUUCUUCUCAUAAGAUAUAGUCGGACCUCUCCUUAAUGGGAGCUAGCGGAUGAAGUGAUGCAACACUGGAGCCGCUGGGAACUAAUUUGUAUGCGAAAGUAUAUUGAUUAGUUUUGGAGUACUCGUGGUCG
How it was run: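 DiMSum derived fitness as the error-weighted combination of fold changes across replicates, kanamycin versus no kanamycin, normalised to wild type. E. coli BL21(DE3) held the library, which randomised all eight P1ex-region intron nucleotides within the knt kanamycin-resistance gene on pET-22b(+). Six replicate transformations grew overnight at 37°C or 30°C on LB agar with or without 25 μg/mL kanamycin, also containing 100 μg/mL carbenicillin, 50 μM IPTG and 0.2% rhamnose, and pooled colonies were amplicon-sequenced on an Illumina HiSeq 2500.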

Sequence | self-splicing fitness (ln) (30 °C) | self-splicing fitness (ln) (37 °C)
AGCAAGCAAUAUUACGUUCC | -1.21 ± 0.12 | -0.544 ± 0.13
GAAGAGCAAUAUUACGGCUU | -0.88 ± 0.14 | 0.407 ± 0.13
UUUAAGCAAUAUUACGUCCG | -1.17 ± 0.22 | 0.606 ± 0.21
CGCAAGCAAUAUUACGAGUC | -3.43 ± 0.13 | -2.97 ± 0.19
GCUGAGCAAUAUUACGACCU | -2.35 ± 0.26 | -1.15 ± 0.33
AUAAAGCAAUAUUACGGCGG | -0.248 ± 0.062 | -0.197 ± 0.077
UAGCAGCAAUAUUACGCUUC | -3.05 ± 0.34 | -2.25 ± 0.33
UGUAAGCAAUAUUACGGGGA |  | -1.19 ± 0.25
GGAAAGCAAUAUUACGGGGG | -3.94 ± 0.26 | -1.45 ± 0.21
UGGUAGCAAUAUUACGCUGG | -2.08 ± 0.2 | -2.52 ± 0.2
CGGCAGCAAUAUUACGUGUA | -3.77 ± 0.25 | -2.21 ± 0.14
UGCGAGCAAUAUUACGGCCU | -1.85 ± 0.2 | -1.45 ± 0.24
UAAAAGCAAUAUUACGAUUC | -2.85 ± 0.17 | -1.02 ± 0.2
AAAAAGCAAUAUUACGCCUG | -0.823 ± 0.09 | -0.000429 ± 0.12
ACUCAGCAAUAUUACGAUGG | -1.1 ± 0.063 | -0.87 ± 0.1
GCAAAGCAAUAUUACGAUGA | -0.578 ± 0.076 | 0.353 ± 0.096
UUCGAGCAAUAUUACGGAUA | -2.76 ± 0.28 | -2.08 ± 0.25
GGGUAGCAAUAUUACGUAAC | -1.07 ± 0.15 | -0.795 ± 0.22
GUCUAGCAAUAUUACGUGAU | -1.04 ± 0.09 | -0.766 ± 0.1
GAAAAGCAAUAUUACGAACA | -0.893 ± 0.1 | 0.0828 ± 0.12
UCGUAGCAAUAUUACGUAGC | -2.27 ± 0.43 | 
ACCCAGCAAUAUUACGGUCU | -1.12 ± 0.038 | -0.171 ± 0.052
UGGUAGCAAUAUUACGACCG | -1.22 ± 0.22 | -0.981 ± 0.27
ACGCAGCAAUAUUACGAAAC | -3.07 ± 0.4 | -1.58 ± 0.21
AGAUAGCAAUAUUACGCUUU | -0.847 ± 0.11 | -1.2 ± 0.16
CGGAAGCAAUAUUACGACAG | -0.256 ± 0.17 | 0.0808 ± 0.23

Sequence | self-splicing fitness (ln) (30 °C) | self-splicing fitness (ln) (37 °C)
AAAUAGCAAUAUUACGUUUA | -1.85 ± 0.15 | -1.03 ± 0.13
UAUAAGCAAUAUUACGCAUA | -1.92 ± 0.12 | -0.585 ± 0.12
GGCUAGCAAUAUUACGUUUA | -0.381 ± 0.15 | -0.882 ± 0.16
UAAAAGCAAUAUUACGUACU | -0.876 ± 0.073 | -0.401 ± 0.092
AGAUAGCAAUAUUACGACGG | -2.09 ± 0.2 | -1.55 ± 0.25
AUUUAGCAAUAUUACGAAUG | -2.39 ± 0.19 | -0.72 ± 0.21
GCGCAGCAAUAUUACGUGAC | -1.83 ± 0.095 | -1.03 ± 0.087
UGUAAGCAAUAUUACGCGAA | -2.68 ± 0.14 | -1.33 ± 0.17
ACAAAGCAAUAUUACGAAAC |  | -0.88 ± 0.2
GGUCAGCAAUAUUACGGACA | -0.754 ± 0.19 | -0.179 ± 0.17
AGAAAGCAAUAUUACGUUCA | -0.142 ± 0.084 | 0.14 ± 0.12
ACCUAGCAAUAUUACGUUUU | -2.61 ± 0.091 | -1.44 ± 0.1
AGAAAGCAAUAUUACGAAAG | -3.93 ± 0.21 | -1.94 ± 0.18
CGGAAGCAAUAUUACGCACU | -2.24 ± 0.13 | -0.396 ± 0.11
CGAGAGCAAUAUUACGCAUC | -3.04 ± 0.35 | -2.33 ± 0.35
UCCUAGCAAUAUUACGUUCG | -1.03 ± 0.16 | -2.28 ± 0.28
AUGUAGCAAUAUUACGUAUC | -4.2 ± 0.42 | -2.58 ± 0.3
CGUAAGCAAUAUUACGGAUG | -0.733 ± 0.091 | -0.608 ± 0.12
UCGAAGCAAUAUUACGGGUA | -0.839 ± 0.062 | -0.123 ± 0.068
UGGUAGCAAUAUUACGAAGA | -1.45 ± 0.4 | -2.3 ± 0.49
UACGAGCAAUAUUACGCUAU | -2.4 ± 0.14 | -3.49 ± 0.29
CGUGAGCAAUAUUACGGUAU | -3.54 ± 0.25 | -3.1 ± 0.34
UACCAGCAAUAUUACGGUAG | -2.15 ± 0.086 | -1.16 ± 0.083
CCUCAGCAAUAUUACGUCUC | -3.73 ± 0.24 | 
CGCAAGCAAUAUUACGCGAA | -3.58 ± 0.16 | -1.87 ± 0.13
UGUUAGCAAUAUUACGACCG | -0.238 ± 0.14 | 0.106 ± 0.14

Sequence | self-splicing fitness (ln) (30 °C) | self-splicing fitness (ln) (37 °C)
AUAAAGCAAUAUUACGUUCC | -0.979 ± 0.13 | -0.885 ± 0.18
GCUAAGCAAUAUUACGAAUU | -2.39 ± 0.18 | -0.0664 ± 0.13
GCUGAGCAAUAUUACGAAUA | -2.55 ± 0.29 | -1.53 ± 0.39
AUUUAGCAAUAUUACGCCCA | -1.06 ± 0.26 | -1.58 ± 0.27
UAUUAGCAAUAUUACGCCCU | -1.3 ± 0.21 | 0.526 ± 0.2
UCAAAGCAAUAUUACGCUUC | -4.01 ± 0.23 | -2.02 ± 0.23
UUUAAGCAAUAUUACGAGAG | -1.49 ± 0.11 | -1.13 ± 0.12
CCAUAGCAAUAUUACGGUCU | -3.96 ± 0.33 | -2.53 ± 0.28
UGCUAGCAAUAUUACGGACU | -0.341 ± 0.1 | -0.639 ± 0.088
GUUGAGCAAUAUUACGUGGA | -1.2 ± 0.37 | -2.45 ± 0.34
UCUGAGCAAUAUUACGUGAG | -1.86 ± 0.11 | -0.646 ± 0.097
UACUAGCAAUAUUACGAAUC | -2.81 ± 0.18 | -3.38 ± 0.35
CAAUAGCAAUAUUACGCACA | -2.3 ± 0.12 | -1.4 ± 0.12
AAACAGCAAUAUUACGAAGG | -3.85 ± 0.13 | -2.2 ± 0.15
ACACAGCAAUAUUACGCGCG | -0.558 ± 0.082 | 0.0666 ± 0.091
GGUCAGCAAUAUUACGUUUU | -0.899 ± 0.073 | -0.202 ± 0.078
UUAAAGCAAUAUUACGCCUA | 0.0988 ± 0.091 | 0.8 ± 0.14
GGCAAGCAAUAUUACGACUG | -1.02 ± 0.12 | -0.532 ± 0.17
CAACAGCAAUAUUACGAAGC | -3.45 ± 0.13 | -2.74 ± 0.15
CUUGAGCAAUAUUACGGCGC | -3.72 ± 0.43 | -1.55 ± 0.41
CCGAAGCAAUAUUACGGGUU | -4.22 ± 0.21 | -2.64 ± 0.16
AGUUAGCAAUAUUACGCUCU | -1.37 ± 0.45 | 
AGAGAGCAAUAUUACGACUA | -2.42 ± 0.44 | 
CUUGAGCAAUAUUACGCCUA |  | -3.13 ± 0.44
UGUAAGCAAUAUUACGUGCG | -0.869 ± 0.075 | -0.337 ± 0.1
